Test results: the supplement of paper PMC10567573

B1: ZER1 (parent)
chain: FDGPEAWGVCEPQREEVEERMWAA

Variants of: B1
Experiment: protein stability index of a GFP-peptide fusion (GPS, HEK-293T) (PSI 1-6); higher = more stable
Details: c terminus: a fixed tail appended
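Also: lentivirally expressed fusions sorted by FACS into six bins by GFP to DsRed ratio, PSI derived from sequencing read proportions per bin multiplied by bin number.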

Variant | protein stability index
W7A | 4.29
W7V | 4.98
W7Y | 3.98
W7T | 4.69
W7Q | 5.22
W7C | 4.66
W7K | 4.81
W7H | 4.63
W7N | 4.58
W7P | 4.52
A24R | 2.76
A24S | 2.7
A24W | 2.15
A24T | 2.49
A24E | 2.64
A24Y | 2.49
A24N | 2.76
A24K | 2.78
A24H | 2.56
A24V | 2.53
A24F | 1.96
G3L | 1.62
G3W | 2.12
G3N | 2.58
G3E | 1.52

Variant | protein stability index
G3C | 3.88
G3H | 1.87
G3F | 2.06
D2F | 1.68
D2I | 5.1
D2R | 1.8
D2E | 2.08
E16V | 2.02
E16P | 2.04
E16N | 2.37
E16H | 2.66
E16M | 1.99
E16D | 2.14
E16A | 2.33
E16F | 2.62
E16R | 2.16
E16G | 2.04
E16L | 1.62
E16T | 2.72
E16W | 1.63
R14A | 2.18
R14C | 2.25
R14I | 2.97
R14W | 2.52
R14F | 2.74

Variant | protein stability index
R14L | 1.8
R14H | 2.31
R14M | 3.08
R14T | 2.54
R14N | 2.86
R14Q | 2.09
R14E | 3.16
F1T | 4.94
F1Q | 4.88
F1D | 4.33
F1N | 4.87
F1K | 3.97
F1I | 4.69
F1G | 4.72
F1A | 5.03
F1P | 5.04
V9Y | 2.48
V9A | 3.21
V9D | 4.92
V9N | 3.35
V9K | 2.59
V9R | 2.5
V9W | 3.22
V9C | 2.03
V9E | 4.03

Variant | protein stability index
V9G | 3.25
V9I | 2.09
E18N | 1.92
E18P | 2.69
E18G | 3.36
E18L | 2.11
E18F | 2.5
E18S | 2.52
E18W | 2.04
E18K | 1.57
E18D | 2.68
E18M | 1.84
E18R | 2.53
E18I | 2.21
M21Q | 2.89
M21N | 2.2
M21W | 2.46
M21V | 3.45
M21S | 2.38
M21F | 2.24
M21D | 3.16
M21K | 2.76
M21L | 2.71
M21A | 3.06
M21G | 3.27

Variant | protein stability index
V17E | 3.18
V17C | 2.3
V17R | 2.24
V17M | 2.26
V17K | 2.41
V17N | 3.28
V17A | 2.27
V17L | 2.34
V17Q | 2.55
V17S | 2.64
A23N | 2.93
A23H | 2.58
A23P | 2.66
A23R | 2.61
A23I | 2.64
A23D | 3.41
A23L | 2.23
A23W | 2.3
A23F | 2.16
A23E | 2.44
A6D | 4.67
A6R | 3.35
A6P | 3.77
A6I | 2.43
A6W | 1.63

Variant | protein stability index
A6T | 2.48
A6H | 2.38
A6E | 4.45
A6G | 3.38
A6L | 1.56
A6C | 2.57
A6Q | 3.59
R20T | 3.23
R20S | 2.79
R20V | 2.67
R20N | 2.75
R20P | 2.92
R20G | 2.96
R20W | 2.15
R20F | 2.65
R20C | 2.6
R20Y | 2.5
R20A | 3.1
W22A | 2.79
W22G | 2.81
W22V | 3.44
W22R | 3.59
W22D | 3.75
W22K | 2.75
W22Q | 2.73

Variant | protein stability index
W22M | 2.61
W22S | 3.25
W22P | 3.57
W22T | 3.4
W22H | 2.62
W22I | 2.63
W22L | 2.42
W22F | 2.57
W22E | 3.79
G8R | 2.42
G8P | 4.17
G8H | 2.33
G8K | 2.25
G8C | 2.33
P4A | 2.48
P4H | 1.79
P4T | 3.25
P4C | 2.63
P4K | 3.02
P4I | 3.23
P4M | 3.65
P4Q | 3.25
P4R | 2.81
P4F | 1.91
P4E | 4.48

Variant | protein stability index
E5F | 3.67
E5W | 2.54
E5R | 3.48
E5N | 1.95
E5C | 3.73
E5S | 2.61
E5A | 2.82
E5I | 2.94
E5L | 1.64
E5P | 3.42
E5H | 2.59
E19H | 1.91
E19L | 2.17
E19Y | 1.94
E19W | 2.05
E19G | 2.15
E19A | 2.68
E19T | 2.87
E19N | 2.4
E19V | 1.98
E19K | 3.35
E19S | 2.45
E19R | 2.35
E19M | 2.22
C10R | 2.6

Variant | protein stability index
C10M | 3.13
C10T | 3.3
C10S | 2.66
C10G | 4.03
C10I | 2.86
C10N | 3.26
C10P | 3.64
C10F | 3.21
C10A | 3.02
P12C | 2.33
P12W | 3.81
P12Y | 2.64
P12E | 3.17
P12V | 2.47
P12M | 3.3
P12T | 3.17
P12L | 2.47
P12Q | 3.22
P12D | 2.88
P12G | 2.69
Q13E | 2.86
Q13D | 2.92
Q13W | 2.17
Q13Y | 2.39
Q13K | 2.91

Variant | protein stability index
Q13T | 2.43
Q13H | 2.44
Q13N | 2.94
Q13G | 2.75
Q13M | 2.46
E11S | 2.73
E11M | 3.24
E11R | 1.93
E11H | 2.55
E11A | 1.87
E11P | 2.64
E11T | 2.58
E11W | 1.81
E15A | 2.45
E15Y | 2.32
E15K | 2.92
E15W | 1.52
E15G | 2.19
E15Q | 2.5
E15P | 1.46
E15T | 2.62
E15S | 2.13
E15N | 2.31
E15C | 3.02
